# Experimental data taken from the supplement of paper PMC6757056.
# ± gives the standard deviation of the averaged measurements.
# B1: library; a variant is named by its letters at N, in order (parent)
# chain: GCUGUCACCGGUGUAUUACCCUAGUGGUCGACCGGUCUGAUGAGUCUNNNNNNAGACGAAACAGC
# How the values were obtained:
# hypoxanthine [1] = variants of: B1; assay: normalized RNA/DNA level with ligand (relative to sTRSVctl = 100) (log10 (% of sTRSVctl)); ligand: hypoxanthine (xanthine aptamer); higher = less ribozyme self-cleavage, higher mRNA level; conditions: ligand concentration (+) RNA-Seq: 5 mM, HEK293T, reporter: mCherry (pCS4076), ligand present: yes
# Summary of the method: (§1)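 HEK293T cells were transfected with library plasmids carrying ribozyme switches linked to an mCherry reporter, or an eGFP reporter in some ligand experiments, at 4 µg per well of a 6-well plate, with any ligand added 1 h beforehand. After 72 h, total RNA was extracted with EDTA, reverse-transcribed, amplified, barcoded and sequenced. RNA level was defined as RNA reads over DNA reads, normalized to a spiked-in non-cleaving sequence or to the top-ranked sequences. That value was multiplied by 100 and converted to log10, the top set was 25 sequences, and only sequences with ≥100 DNA reads were retained.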
# hypoxanthine [2] = variants of: B1; assay: normalized RNA/DNA level without ligand (relative to sTRSVctl = 100) (log10 (% of sTRSVctl)); ligand: hypoxanthine (xanthine aptamer); higher = less ribozyme self-cleavage, higher mRNA level; conditions: HEK293T, reporter: mCherry (pCS4076), ligand present: no
# Summary of the method: as §1
Variant,normalized RNA/DNA level with ligand (log10) (hypoxanthine [1]),normalized RNA/DNA level without ligand (log10) (hypoxanthine [2])
UAUCGA,1.92 ± 0.035,1.76 ± 0.046
CAUCGC,1.97 ± 0.064,1.9 ± 0.021
AAUCGC,1.92 ± 0.03,1.82 ± 0.053
GAUCGC,1.93 ± 0.023,1.8 ± 0.053
CAUCGG,1.92 ± 0.055,1.63 ± 0.036
CAUCGU,2 ± 0.038,1.94 ± 0.025
AAUCGU,1.94 ± 0.023,1.69 ± 0.022
GAUCGU,1.96 ± 0.11,1.838 ± 0.013
UAUCGU,1.9 ± 0.052,1.7 ± 0.091
CAUCUA,2.01 ± 0.12,1.85 ± 0.055
GAUCUA,1.95 ± 0.055,1.86 ± 0.033
UAUCUA,1.92 ± 0.059,1.89 ± 0.024
CAUCUC,1.957 ± 0.0025,2.01 ± 0.021
AAUCUC,2 ± 0.062,2.023 ± 0.02
GAUCUC,1.939 ± 0.0052,1.976 ± 0.0046
UAUCUC,2 ± 0.021,1.99 ± 0.031
CAUCUG,1.97 ± 0.022,1.92 ± 0.081
GAUCUG,1.92 ± 0.051,1.58 ± 0.039
UAUCUG,1.904 ± 0.0025,1.708 ± 0.0037
CAUCUU,2 ± 0.027,1.93 ± 0.047

Variant,normalized RNA/DNA level with ligand (log10) (hypoxanthine [1]),normalized RNA/DNA level without ligand (log10) (hypoxanthine [2])
GAUCUU,1.96 ± 0.028,1.943 ± 0.0084
AAUCUU,1.94 ± 0.029,1.914 ± 0.012
UAUCUU,1.97 ± 0.044,1.9 ± 0.043
AAUGAA,1.872 ± 0.0038,1.71 ± 0.018
UAUGAA,1.915 ± 0.013,1.73 ± 0.023
UAUGAG,1.86 ± 0.046,1.54 ± 0.046
UAUGAU,1.91 ± 0.022,1.7488 ± 0.0016
CAUGCA,1.979 ± 0.013,1.688 ± 0.016
GAUGCA,1.97 ± 0.036,1.83 ± 0.02
UAUGCA,1.88 ± 0.022,1.83 ± 0.019
CAUGCC,1.92 ± 0.1,1.84 ± 0.028
AAUGCC,1.942 ± 0.015,1.83 ± 0.039
UAUGCC,1.935 ± 0.0058,1.87 ± 0.067
UAUGCG,1.8828 ± 0.0017,1.67 ± 0.037
AAUGCU,1.92 ± 0.071,1.864 ± 0.011
UAUGCU,1.92 ± 0.013,1.85 ± 0.03
CAUGGA,1.92 ± 0.05,1.7786 ± 0.00037
UAUGGA,1.906 ± 0.012,1.65 ± 0.02
CAUGGC,1.97 ± 0.044,1.87 ± 0.046
AAUGGC,1.929 ± 0.0094,1.79 ± 0.02

Variant,normalized RNA/DNA level with ligand (log10) (hypoxanthine [1]),normalized RNA/DNA level without ligand (log10) (hypoxanthine [2])
AAUGGU,1.925 ± 0.016,1.592 ± 0.0071
CAUGUA,1.91 ± 0.011,1.771 ± 0.0036
GAUGUA,1.887 ± 0.018,1.79 ± 0.03
UAUGUA,1.906 ± 0.0084,1.837 ± 0.0025
CAUGUC,1.91 ± 0.056,1.92 ± 0.042
GAUGUC,1.95 ± 0.0048,1.92 ± 0.02
AAUGUC,1.98 ± 0.064,1.921 ± 0.0048
CAUGUG,1.93 ± 0.02,1.882 ± 0.012
CAUGUU,1.94 ± 0.026,1.879 ± 0.0072
UAUGUU,1.94 ± 0.06,1.85 ± 0.049
CAUUAC,1.9 ± 0.046,1.82 ± 0.0041
CAUUAG,1.941 ± 0.019,1.73 ± 0.054
UAUUAG,1.873 ± 0.0072,1.6759 ± 0.00016
AAUUAU,1.92 ± 0.026,1.82 ± 0.022
CAUUCA,1.92 ± 0.04,1.78 ± 0.029
GAUUCA,1.961 ± 0.017,1.86 ± 0.041
CAUUCC,1.98 ± 0.055,1.9 ± 0.048
GAUUCC,1.976 ± 0.0082,1.92 ± 0.034
